PMC5450235, “Predicting the targeting of tail-anchored proteins to subcellular compartments in mammalian cells” (Journal of Cell Science, 2017)
No end group written: not given here. *: point of attachment. FITC = O=C1OC2(c3ccc(O)cc3Oc3cc(O)ccc32)c2ccc(NC(=S)*)cc21

T1: recombinant full-length human PEX19 (human, UniProt P40855 1-299)
T1 construct: PEX19, human, full length, cloned into pETM11; also called recombinant PEX19
T1 sequence (looked up): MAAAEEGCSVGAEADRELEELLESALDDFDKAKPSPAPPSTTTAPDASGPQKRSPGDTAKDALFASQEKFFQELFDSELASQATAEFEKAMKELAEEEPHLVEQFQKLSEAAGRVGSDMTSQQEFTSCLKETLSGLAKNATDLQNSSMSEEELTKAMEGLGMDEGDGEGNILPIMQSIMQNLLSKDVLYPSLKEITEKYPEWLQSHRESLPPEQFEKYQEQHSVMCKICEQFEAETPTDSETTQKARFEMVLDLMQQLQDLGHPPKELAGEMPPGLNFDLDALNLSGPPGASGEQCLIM


target: T1, recombinant full-length human PEX19; assay: fluorescence polarisation; fluorescence anisotropy; FITC peptide at 6.7 nM, protein titrated (dilution series, factor 1.5); 25°C; 50 mM Tris-HCl pH 7.5, 250 mM NaCl, 0.5 mM TCEP with 0.67 mg/ml BSA, no detergent; 1:1 hyperbolic fit; conditions: both partners purified

| Binder | Kd [nM] |
| --- | --- |
| {FITC}-SPGVLTFAIIWPFIAQWLVYLYYQRRRRKL (TMD and tail region of ACBD5; the C-terminal asparagine residue was removed to facilitate peptide synthesis; also called ACBD5-TMD-T WT peptide; source: synthetic peptide (Genscript)) [FITC-labelled peptide ACBD5 WT] | 900 |
| {FITC}-SPGVLTFAIIWPFIAQWLVYLYYQAAAAKL (the C-terminal asparagine was removed; also called MUT2 peptide; source: synthetic peptide (Genscript)) [FITC-labelled peptide ACBD5 MUT2] | 7700 |
| {FITC}-SPGVLTFAIIWPFIAQWLVYLYYQRARAKL (the C-terminal asparagine was removed; also called MUT1 peptide; peptide MUT1; source: synthetic peptide (Genscript)) [FITC-labelled peptide ACBD5 MUT1] | 1900 |
